This note sets out measurements from the supplement of paper PMC5998384.

Data set [1] deals with HeLa Kyoto. Briefly: solubility in G1/S (NP-40 vs SDS abundance) (log2 ratio); higher = more soluble. The note with it: cell cycle stage: G1/S.
The subject of data set [2] is HeLa Kyoto. Briefly: melting temperature (median over replicates), in situ; higher = more thermally stable.
The subject of data set [3] is HeLa Kyoto. Briefly: solubility change mitosis vs G1/S (difference of NP-40 vs SDS log2 ratios) (log2 ratio difference); higher = more soluble in mitosis.
The subject of data set [4] is HeLa Kyoto. Briefly: thermal stability score vs G1/S (z-score of summed log2 fold changes over temperatures); higher = more thermally stable than in G1/S.
[5] abbreviates: cell cycle stage: early G1 (4.5 h after nocodazole release).
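For melting temperature (median over replicates), in situ in this document: HeLa Kyoto cells synchronized by double thymidine or nocodazole block, proteins quantified by TMT10plex mass spectrometry, three independent biological replicates.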
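For solubility change mitosis vs G1/S (difference of NP-40 vs SDS log2 ratios) in this document: synchronized HeLa Kyoto cells (double thymidine block for G1/S, nocodazole release for mitosis), protein amounts in NP-40 versus SDS lysates quantified by mass spectrometry, three biological replicates.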
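For solubility in G1/S (NP-40 vs SDS abundance) in this document: HeLa Kyoto cells arrested at G1/S by double thymidine block, proteins quantified by TMT10plex mass spectrometry in mild NP-40 versus SDS extracts, three biological replicates.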
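For thermal stability score vs G1/S (z-score of summed log2 fold changes over temperatures) in this document: synchronized HeLa Kyoto cells, proteins quantified by TMT10plex mass spectrometry, three biological replicates, mitosis taken 0.5 h after nocodazole release, G1/S directly after double thymidine block.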

Sequence of ABCF1 (chain, as listed by the source): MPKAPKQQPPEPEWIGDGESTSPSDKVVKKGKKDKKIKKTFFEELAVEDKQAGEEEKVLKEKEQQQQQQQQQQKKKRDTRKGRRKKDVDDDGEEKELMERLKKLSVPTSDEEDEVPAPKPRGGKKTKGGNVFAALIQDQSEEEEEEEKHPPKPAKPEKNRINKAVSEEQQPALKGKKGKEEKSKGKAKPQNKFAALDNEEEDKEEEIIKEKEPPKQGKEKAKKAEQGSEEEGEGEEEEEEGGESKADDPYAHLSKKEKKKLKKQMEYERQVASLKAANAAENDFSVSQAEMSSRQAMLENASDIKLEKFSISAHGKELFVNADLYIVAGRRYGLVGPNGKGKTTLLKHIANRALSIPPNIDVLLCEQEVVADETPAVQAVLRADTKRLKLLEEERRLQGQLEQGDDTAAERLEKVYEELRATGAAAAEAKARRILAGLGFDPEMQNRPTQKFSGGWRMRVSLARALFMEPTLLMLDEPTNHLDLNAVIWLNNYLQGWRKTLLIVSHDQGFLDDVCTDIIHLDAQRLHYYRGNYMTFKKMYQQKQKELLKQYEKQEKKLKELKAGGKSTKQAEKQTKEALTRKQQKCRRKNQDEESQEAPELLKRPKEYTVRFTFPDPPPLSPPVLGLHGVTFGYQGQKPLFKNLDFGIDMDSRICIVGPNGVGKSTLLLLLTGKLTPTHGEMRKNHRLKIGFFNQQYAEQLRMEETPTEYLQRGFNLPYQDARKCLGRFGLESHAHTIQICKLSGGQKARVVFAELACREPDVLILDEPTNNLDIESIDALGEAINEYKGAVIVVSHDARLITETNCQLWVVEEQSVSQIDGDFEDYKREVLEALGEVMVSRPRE

On to “MNTEAEQQLLHHARNGNAEEVRQLLETMARNEVIADINCKGRSKSNLGWTPLHLACYFGHRQVVQDLLKAGAEVNVLNDMGDTPLHRAAFTGRKELVMLLLEYNADTTIVNGSGQTAKEVTHAEEIRSMLEAVERTQQRKLEELLLAAAREGKTTELTALLNRPNPPDVNCSDQLGNTPLHCAAYRAHKQCALKLLRSGADPNLKNKNDQKPLDLAQGAEMKHILVGNKVIYKALKRYEGPLWKSSRFFGWRLFWVVLEHGVLSWYRKQPDAVHNIYRQGCKHLTQAVCTVKSTDSCLFFIKCFDDTIHGFRVPKNSLQQSREDWLEAIEEHSAYSTHYCSQDQLTDEEEEDTVSAADLKKSLEKAQSCQQRLDREISNFLKMIKECDMAKEMLPSFLQKVEVVSEASRETCVALTDCLNLFTKQEGVRNFKLEQEQEKNKILSEALETLATEHHELEQSLVKGSPPASILSEDEFYDALSDSESERSLSRLEAVTARSFEEEGEHLGSRKHRMSEEKDCGGGDALSNGIKKHRTSLPSPMFSRNDFSIWSILRKCIGMELSKITMPVIFNEPLSFLQRLTEYMEHTYLIHKASSLSDPVERMQCVAAFAVSAVASQWERTGKPFNPLLGETYELVRDDLGFRLISEQVSHHPPISAFHAEGLNNDFIFHGSIYPKLKFWGKSVEAEPKGTITLELLEHNEAYTWTNPTCCVHNIIVGKLWIEQYGNVEIINHKTGDKCVLNFKPCGLFGKELHKVEGYIQDKSKKKLCALYGKWTECLYSVDPATFDAYKKNDKKNTEEKKNSKQMSTSEELDEMPVPDSESVFIIPGSVLLWRIAPRPPNSAQMYNFTSFAMVLNEVDKDMESVIPKTDCRLRPDIRAMENGEIDQASEEKKRLEEKQRAARKNRSKSEEDWKTRWFHQGPNPYNGAQDWIYSGSYWDRNYFNLPDIY [OSBPL1A]”, for which the “solubility in G1/S (log2)” value with HeLa Kyoto [1] was 0.0257. In addition, the melting temperature in the data set on HeLa Kyoto [2] (cell cycle stage: G1/S) and in the data set on HeLa Kyoto [2] (cell cycle stage: mitosis) was 51 °C each time. The “solubility change mitosis (log2)” value with HeLa Kyoto [3] is -0.0641. For the same substance, the thermal stability score with HeLa Kyoto [4] (setting [5]) was -0.0179; with HeLa Kyoto [4] (cell cycle stage: mitosis), -0.158.
In the case of “MAAPSWRGARLVQSVLRVWQVGPHVARERVIPFSSLLGFQRRCVSCVAGSAFSGPRLASASRSNGQGSALDHFLGFSQPDSSVTPCVPAVSMNRDEQDVLLVHHPDMPENSRVLRVVLLGAPNAGKSTLSNQLLGRKVFPVSRKVHTTRCQALGVITEKETQVILLDTPGIISPGKQKRHHLELSLLEDPWKSMESADLVVVLVDVSDKWTRNQLSPQLLRCLTKYSQIPSVLVMNKVDCLKQKSVLLELTAALTEGVVNGKKLKMRQAFHSHPGTHCPSPAVKDPNTQSVGNPQRIGWPHFKEIFMLSALSQEDVKTLKQYLLTQAQPGPWEYHSAVLTSQTPEEICANIIREKLLEHLPQEVPYNVQQKTAVWEEGPGGELVIQQKLLVPKESYVKLLIGPKGHVISQIAQEAGHDLMDIFLCDVDIRLSVKLLK [ERAL1]”, the “solubility in G1/S (log2)” value with HeLa Kyoto [1] came out at 0.33. Besides, the figures for the melting temperature in the data set on HeLa Kyoto [2] (cell cycle stage: G1/S) and in the data set with HeLa Kyoto [2] (cell cycle stage: mitosis) were 51.2 °C and 50.9 °C, respectively. Besides, the “solubility change mitosis (log2)” value in the data set with HeLa Kyoto [3] is -0.061. In addition, the thermal stability score with HeLa Kyoto [4] (setting [5]) was -1.87; with HeLa Kyoto [4] (cell cycle stage: mitosis) it was -1.48.
Turning to “MKLGRAVLGLLLLAPSVVQAVEPISLGLALAGVLTGYIYPRLYCLFAECCGQKRSLSREALQKDLDDNLFGQHLAKKIILNAVFGFINNPKPKKPLTLSLHGWTGTGKNFVSKIIAENIYEGGLNSDYVHLFVATLHFPHASNITLYKDQLQLWIRGNVSACARSIFIFDEMDKMHAGLIDAIKPFLDYYDLVDGVSYQKAMFIFLSNAGAERITDVALDFWRSGKQREDIKLKDIEHALSVSVFNNKNSGFWHSSLIDRNLIDYFVPFLPLEYKHLKMCIRVEMQSRGYEIDEDIVSRVAEEMTFFPKEERVFSDKGCKTVFTKLDYYYDD [TOR1A]”, the “solubility in G1/S (log2)” value in the data set on HeLa Kyoto [1] worked out at 0.000474. Besides, the melting temperature with HeLa Kyoto [2] (cell cycle stage: G1/S) is 53.7 °C; in the data set on HeLa Kyoto [2] (cell cycle stage: mitosis), 53.5 °C. For the same substance, in the data set with HeLa Kyoto [3], the “solubility change mitosis (log2)” value was -0.0946. Also, the values for the thermal stability score with HeLa Kyoto [4] (setting [5]) and in the data set with HeLa Kyoto [4] (cell cycle stage: mitosis) were 3.37 and 4.06, respectively.
In the case of ABCF1, the “solubility in G1/S (log2)” value in the data set with HeLa Kyoto [1] was -0.133. For the same substance, the melting temperature in the data set with HeLa Kyoto [2] (cell cycle stage: G1/S) worked out at 52.7 °C; with HeLa Kyoto [2] (cell cycle stage: mitosis) it was 52.3 °C. In addition, the “solubility change mitosis (log2)” value in the data set on HeLa Kyoto [3] turned out to be 0.0453. Also, the thermal stability score in the data set on HeLa Kyoto [4] (setting [5]) is -2.34; with HeLa Kyoto [4] (cell cycle stage: mitosis) it was -2.94.
As to “MDTEGFGELLQQAEQLAAETEGISELPHVERNLQEIQQAGERLRSRTLTRTSQETADVKASVLLGSRGLDISHISQRLESLSAATTFEPLEPVKDTDIQGFLKNEKDNALLSAIEESRKRTFGMAEEYHRESMLVEWEQVKQRILHTLLASGEDALDFTQESEPSYISDVGPPGRSSLDNIEMAYARQIYIYNEKIVNGHLQPNLVDLCASVAELDDKSISDMWTMVKQMTDVLLTPATDALKNRSSVEVRMEFVRQALAYLEQSYKNYTLVTVFGNLHQAQLGGVPGTYQLVRSFLNIKLPAPLPGLQDGEVEGHPVWALIYYCMRCGDLLAASQVVNRAQHQLGEFKTWFQEYMNSKDRRLSPATENKLRLHYRRALRNNTDPYKRAVYCIIGRCDVTDNQSEVADKTEDYLWLKLNQVCFDDDGTSSPQDRLTLSQFQKQLLEDYGESHFTVNQQPFLYFQVLFLTAQFEAAVAFLFRMERLRCHAVHVALVLFELKLLLKSSGQSAQLLSHEPGDPPCLRRLNFVRLLMLYTRKFESTDPREALQYFYFLRDEKDSQGENMFLRCVSELVIESREFDMILGKLENDGSRKPGVIDKFTSDTKPIINKVASVAENKGLFEEAAKLYDLAKNADKVLELMNKLLSPVVPQISAPQSNKERLKNMALSIAERYRAQGISANKFVDSTFYLLLDLITFFDEYHSGHIDRAFDIIERLKLVPLNQESVEERVAAFRNFSDEIRHNLSEVLLATMNILFTQFKRLKGTSPSSSSRPQRVIEDRDSQLRSQARTLITFAGMIPYRTSGDTNARLVQMEVLMN [NUP93]”, in the data set on HeLa Kyoto [1], the “solubility in G1/S (log2)” value was -0.149. Also, the melting temperature with HeLa Kyoto [2] (cell cycle stage: G1/S) stood at 51.9 °C; in the data set with HeLa Kyoto [2] (cell cycle stage: mitosis) it was 48.3 °C. For the same substance, the “solubility change mitosis (log2)” value in the data set with HeLa Kyoto [3] came out at 0.117. The thermal stability score was -3.26 with HeLa Kyoto [4] (setting [5]) and -4.55 in the data set on HeLa Kyoto [4] (cell cycle stage: mitosis).
As for SMARCA2, the “solubility in G1/S (log2)” value in the data set on HeLa Kyoto [1] was -0.129. Also, the melting temperature in the data set on HeLa Kyoto [2] (cell cycle stage: G1/S) was determined as 47.8 °C; with HeLa Kyoto [2] (cell cycle stage: mitosis) it was 49.7 °C. In the data set with HeLa Kyoto [3], the “solubility change mitosis (log2)” value was -0.051. Moreover, the thermal stability score was 2.43 in the data set on HeLa Kyoto [4] (setting [5]) and 4.33 in the data set with HeLa Kyoto [4] (cell cycle stage: mitosis).
